Source: patent publication US20140154255A1 (AbbVie / Abbott, published 2014)

Legend:
[1] = biological target: T1, human VEGF-A residues 27-191 of Accession #AAV38412 (human, UniProt P15692 27-191); test: SS DLL4-VEGF DVD-Ig format; BIAcore by paragraph 262
T1 construct: range 27-191
Experimental: (§1) The binding kinetics and affinity of the antibodies for VEGF (human VEGF-A residues 27-191 of Accession #AAV38412) was determined by using a BIAcore T200 surface plasmon resonance system (BIAcore, GE Healthcare, Piscataway, N.J.). Coupling running buffer was HBS-EP+ running buffer (10 mM HEPES, 150 mM sodium chloride, 3 mM EDTA 0.05% P-20, pH 7.4); assay running buffer was HBS-EP+ with 300 mM sodium chloride and 0.1 mg/mL BSA (Sigma A7906). Polyclonal goat anti-human Fc (Thermo Scientific prod#31125) was first immobilized to the biosensor surface in 10 mM sodium acetate, pH 4.5 using standard BIAcore amine coupling reagents (N-ethyl-N′-dimethylamino-propylcarbodiimide, EDC; N-hydroxysuccinimide, NHS; and ethanolamine HCl, pH 8.5). For binding kinetics assay a series of cycles were performed, each cycle consisted of 1) mAb capture, 2) Ag or buffer injection, 3) dissociation phase and 4) regeneration. Briefly, anti-VEGF antibodies were captured on parallel surfaces at a low flow rate of 10 μL/min. Capture levels were kept low to minimize avidity due to the dimeric nature of VEGF. No capture of the antibody was made on the reference surface to serve for primary referencing and as a negative control. Subsequently, VEGF or buffer only was injected to all flow cells at a flow rate of 80 μL/min for three minutes to monitor association followed by a 20-minute flow of assay rinning buffer at a flow rate of 80 μL/min to monitor dissociation. […] At the end of each cycle the surface was regenerated with 10 mM glycine, pH 1.5 at a flow rate of 60 μL/min in pulses of 60 and 10 sec. Binding data were fit to the 1:1 Langmuir model with mass transport term included using Biacore T200 Evaluation Software to determine the binding constants.

[2] = biological target: T1, human VEGF-A residues 27-191 of …; test: BIAcore SPR [continued]
Experimental: as §1

[3] = biological target: T1, human VEGF-A residues 27-191 of …; test: BIAcore SPR, KD WT/KD mutant [continued]
Experimental: as §1

T1 sequence (P15692 other isoform, or with tags, fused parts or gaps limits assumed): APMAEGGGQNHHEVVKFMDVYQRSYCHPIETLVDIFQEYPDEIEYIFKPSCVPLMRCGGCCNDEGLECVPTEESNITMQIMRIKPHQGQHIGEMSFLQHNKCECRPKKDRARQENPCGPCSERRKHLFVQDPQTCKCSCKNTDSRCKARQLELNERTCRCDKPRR

Row | Affinity relative to WT [1] | Kd [2] | koff [2] | kon [2] | affinity improvement [3] | Binder
1 | 0.4 fold |  |  |  |  | T 30 F (bispecific antibody, also called SS DLL4-VEGF DVD-Ig variant T30F) VH: EVQLVESGGGLVQPGGSLRLSCAASGFTFSNFPMAWVRQAPGKGLEWVATISSSDGTTYYRDSVKGRFTISRDNAKNSLYLQMNSLRAEDTAVYYCARGYYNSPFAYWGQGTLVTVSSASTKGPEVQLVESGGGLVQPGGSLRLSCAASGYTFFNYGMNWVRQAPGKGLEWVGWINTYTGEPTYAADFKRRFTFSLDTSKSTAYLQMNSLRAEDTAVYYCAKYPHYYGSSHWYFDVWGQGTLVTVSS VL: DIQMTQSPSSLSASVGDRVTITCRASEDIYSNLAWYQQKPGKAPKLLIYDTNNLADGVPSRFSGSGSGTDFTLTISSLQPEDFATYYCQQYNNYPPTFGQGTKLEIKRTVAAPDIQMTQSPSSLSASVGDRVTITCSASQDISNYLNWYQQKPGKAPKVLIYFTSSLHSGVPSRFSGSGSGTDFTLTISSLQPEDFATYYCQQYSTVPWTFGQGTKVEIK
2 | 0.6 fold |  |  |  |  | T 28 W (bispecific antibody, also called SS DLL4-VEGF DVD-Ig variant T28W) VH: EVQLVESGGGLVQPGGSLRLSCAASGFTFSNFPMAWVRQAPGKGLEWVATISSSDGTTYYRDSVKGRFTISRDNAKNSLYLQMNSLRAEDTAVYYCARGYYNSPFAYWGQGTLVTVSSASTKGPEVQLVESGGGLVQPGGSLRLSCAASGYWFTNYGMNWVRQAPGKGLEWVGWINTYTGEPTYAADFKRRFTFSLDTSKSTAYLQMNSLRAEDTAVYYCAKYPHYYGSSHWYFDVWGQGTLVTVSS VL: DIQMTQSPSSLSASVGDRVTITCRASEDIYSNLAWYQQKPGKAPKLLIYDTNNLADGVPSRFSGSGSGTDFTLTISSLQPEDFATYYCQQYNNYPPTFGQGTKLEIKRTVAAPDIQMTQSPSSLSASVGDRVTITCSASQDISNYLNWYQQKPGKAPKVLIYFTSSLHSGVPSRFSGSGSGTDFTLTISSLQPEDFATYYCQQYSTVPWTFGQGTKVEIK
3 | 0.8 fold |  |  |  |  | T 28 D (bispecific antibody, also called SS DLL4-VEGF DVD-Ig variant T28D) VH: EVQLVESGGGLVQPGGSLRLSCAASGFTFSNFPMAWVRQAPGKGLEWVATISSSDGTTYYRDSVKGRFTISRDNAKNSLYLQMNSLRAEDTAVYYCARGYYNSPFAYWGQGTLVTVSSASTKGPEVQLVESGGGLVQPGGSLRLSCAASGYDFTNYGMNWVRQAPGKGLEWVGWINTYTGEPTYAADFKRRFTFSLDTSKSTAYLQMNSLRAEDTAVYYCAKYPHYYGSSHWYFDVWGQGTLVTVSS VL: DIQMTQSPSSLSASVGDRVTITCRASEDIYSNLAWYQQKPGKAPKLLIYDTNNLADGVPSRFSGSGSGTDFTLTISSLQPEDFATYYCQQYNNYPPTFGQGTKLEIKRTVAAPDIQMTQSPSSLSASVGDRVTITCSASQDISNYLNWYQQKPGKAPKVLIYFTSSLHSGVPSRFSGSGSGTDFTLTISSLQPEDFATYYCQQYSTVPWTFGQGTKVEIK
4 | 0.9 fold |  |  |  |  | G 55 Q (bispecific antibody, also called SS DLL4-VEGF DVD-Ig variant G55Q) VH: EVQLVESGGGLVQPGGSLRLSCAASGFTFSNFPMAWVRQAPGKGLEWVATISSSDGTTYYRDSVKGRFTISRDNAKNSLYLQMNSLRAEDTAVYYCARGYYNSPFAYWGQGTLVTVSSASTKGPEVQLVESGGGLVQPGGSLRLSCAASGYTFTNYGMNWVRQAPGKGLEWVGWINTYTQEPTYAADFKRRFTFSLDTSKSTAYLQMNSLRAEDTAVYYCAKYPHYYGSSHWYFDVWGQGTLVTVSS VL: DIQMTQSPSSLSASVGDRVTITCRASEDIYSNLAWYQQKPGKAPKLLIYDTNNLADGVPSRFSGSGSGTDFTLTISSLQPEDFATYYCQQYNNYPPTFGQGTKLEIKRTVAAPDIQMTQSPSSLSASVGDRVTITCSASQDISNYLNWYQQKPGKAPKVLIYFTSSLHSGVPSRFSGSGSGTDFTLTISSLQPEDFATYYCQQYSTVPWTFGQGTKVEIK
5 | 1.1 fold |  |  |  |  | N 31 G (bispecific antibody, also called SS DLL4-VEGF DVD-Ig variant N31G) VH: EVQLVESGGGLVQPGGSLRLSCAASGFTFSNFPMAWVRQAPGKGLEWVATISSSDGTTYYRDSVKGRFTISRDNAKNSLYLQMNSLRAEDTAVYYCARGYYNSPFAYWGQGTLVTVSSASTKGPEVQLVESGGGLVQPGGSLRLSCAASGYTFTGYGMNWVRQAPGKGLEWVGWINTYTGEPTYAADFKRRFTFSLDTSKSTAYLQMNSLRAEDTAVYYCAKYPHYYGSSHWYFDVWGQGTLVTVSS VL: DIQMTQSPSSLSASVGDRVTITCRASEDIYSNLAWYQQKPGKAPKLLIYDTNNLADGVPSRFSGSGSGTDFTLTISSLQPEDFATYYCQQYNNYPPTFGQGTKLEIKRTVAAPDIQMTQSPSSLSASVGDRVTITCSASQDISNYLNWYQQKPGKAPKVLIYFTSSLHSGVPSRFSGSGSGTDFTLTISSLQPEDFATYYCQQYSTVPWTFGQGTKVEIK

The next lines start with the binder.

Row | Binder | Affinity relative to WT [1] | Kd [2] | koff [2] | kon [2] | affinity improvement [3]
6 | E 56 W (bispecific antibody, also called SS DLL4-VEGF DVD-Ig variant E56W) VH: EVQLVESGGGLVQPGGSLRLSCAASGFTFSNFPMAWVRQAPGKGLEWVATISSSDGTTYYRDSVKGRFTISRDNAKNSLYLQMNSLRAEDTAVYYCARGYYNSPFAYWGQGTLVTVSSASTKGPEVQLVESGGGLVQPGGSLRLSCAASGYTFTNYGMNWVRQAPGKGLEWVGWINTYTGWPTYAADFKRRFTFSLDTSKSTAYLQMNSLRAEDTAVYYCAKYPHYYGSSHWYFDVWGQGTLVTVSS VL: DIQMTQSPSSLSASVGDRVTITCRASEDIYSNLAWYQQKPGKAPKLLIYDTNNLADGVPSRFSGSGSGTDFTLTISSLQPEDFATYYCQQYNNYPPTFGQGTKLEIKRTVAAPDIQMTQSPSSLSASVGDRVTITCSASQDISNYLNWYQQKPGKAPKVLIYFTSSLHSGVPSRFSGSGSGTDFTLTISSLQPEDFATYYCQQYSTVPWTFGQGTKVEIK | 0.6 fold |  |  |  | 
7 | S100a A (SS DLL4-VEGF DVD-Ig) (bispecific antibody, also called SS DLL4-VEGF DVD-Ig variant S100aA) VH: EVQLVESGGGLVQPGGSLRLSCAASGFTFSNFPMAWVRQAPGKGLEWVATISSSDGTTYYRDSVKGRFTISRDNAKNSLYLQMNSLRAEDTAVYYCARGYYNSPFAYWGQGTLVTVSSASTKGPEVQLVESGGGLVQPGGSLRLSCAASGYTFTNYGMNWVRQAPGKGLEWVGWINTYTGEPTYAADFKRRFTFSLDTSKSTAYLQMNSLRAEDTAVYYCAKYPHYYGASHWYFDVWGQGTLVTVSS VL: DIQMTQSPSSLSASVGDRVTITCRASEDIYSNLAWYQQKPGKAPKLLIYDTNNLADGVPSRFSGSGSGTDFTLTISSLQPEDFATYYCQQYNNYPPTFGQGTKLEIKRTVAAPDIQMTQSPSSLSASVGDRVTITCSASQDISNYLNWYQQKPGKAPKVLIYFTSSLHSGVPSRFSGSGSGTDFTLTISSLQPEDFATYYCQQYSTVPWTFGQGTKVEIK |  | 11 nM | 0.000124 s⁻¹ | 11700 M⁻¹ s⁻¹ | 0.8 fold
8 | H97 F (SS DLL4-VEGF DVD-Ig) (bispecific antibody, also called SS DLL4-VEGF DVD-Ig variant H97F) VH: EVQLVESGGGLVQPGGSLRLSCAASGFTFSNFPMAWVRQAPGKGLEWVATISSSDGTTYYRDSVKGRFTISRDNAKNSLYLQMNSLRAEDTAVYYCARGYYNSPFAYWGQGTLVTVSSASTKGPEVQLVESGGGLVQPGGSLRLSCAASGYTFTNYGMNWVRQAPGKGLEWVGWINTYTGEPTYAADFKRRFTFSLDTSKSTAYLQMNSLRAEDTAVYYCAKYPFYYGSSHWYFDVWGQGTLVTVSS VL: DIQMTQSPSSLSASVGDRVTITCRASEDIYSNLAWYQQKPGKAPKLLIYDTNNLADGVPSRFSGSGSGTDFTLTISSLQPEDFATYYCQQYNNYPPTFGQGTKLEIKRTVAAPDIQMTQSPSSLSASVGDRVTITCSASQDISNYLNWYQQKPGKAPKVLIYFTSSLHSGVPSRFSGSGSGTDFTLTISSLQPEDFATYYCQQYSTVPWTFGQGTKVEIK |  | 11 nM | 8.15e-05 s⁻¹ | 7210 M⁻¹ s⁻¹ | 0.8 fold
9 | H97 A (SS DLL4-VEGF DVD-Ig) (bispecific antibody, also called SS DLL4-VEGF DVD-Ig variant H97A) VH: EVQLVESGGGLVQPGGSLRLSCAASGFTFSNFPMAWVRQAPGKGLEWVATISSSDGTTYYRDSVKGRFTISRDNAKNSLYLQMNSLRAEDTAVYYCARGYYNSPFAYWGQGTLVTVSSASTKGPEVQLVESGGGLVQPGGSLRLSCAASGYTFTNYGMNWVRQAPGKGLEWVGWINTYTGEPTYAADFKRRFTFSLDTSKSTAYLQMNSLRAEDTAVYYCAKYPAYYGSSHWYFDVWGQGTLVTVSS VL: DIQMTQSPSSLSASVGDRVTITCRASEDIYSNLAWYQQKPGKAPKLLIYDTNNLADGVPSRFSGSGSGTDFTLTISSLQPEDFATYYCQQYNNYPPTFGQGTKLEIKRTVAAPDIQMTQSPSSLSASVGDRVTITCSASQDISNYLNWYQQKPGKAPKVLIYFTSSLHSGVPSRFSGSGSGTDFTLTISSLQPEDFATYYCQQYSTVPWTFGQGTKVEIK |  | 5.03 nM | 0.000269 s⁻¹ | 53600 M⁻¹ s⁻¹ | 1 fold
10 | N31 W (SS DLL4-VEGF DVD-Ig) (bispecific antibody, also called SS DLL4-VEGF DVD-Ig variant N31W) VH: EVQLVESGGGLVQPGGSLRLSCAASGFTFSNFPMAWVRQAPGKGLEWVATISSSDGTTYYRDSVKGRFTISRDNAKNSLYLQMNSLRAEDTAVYYCARGYYNSPFAYWGQGTLVTVSSASTKGPEVQLVESGGGLVQPGGSLRLSCAASGYTFTWYGMNWVRQAPGKGLEWVGWINTYTGEPTYAADFKRRFTFSLDTSKSTAYLQMNSLRAEDTAVYYCAKYPHYYGSSHWYFDVWGQGTLVTVSS VL: DIQMTQSPSSLSASVGDRVTITCRASEDIYSNLAWYQQKPGKAPKLLIYDTNNLADGVPSRFSGSGSGTDFTLTISSLQPEDFATYYCQQYNNYPPTFGQGTKLEIKRTVAAPDIQMTQSPSSLSASVGDRVTITCSASQDISNYLNWYQQKPGKAPKVLIYFTSSLHSGVPSRFSGSGSGTDFTLTISSLQPEDFATYYCQQYSTVPWTFGQGTKVEIK |  | 13 nM | 6.92e-05 s⁻¹ | 5500 M⁻¹ s⁻¹ | 0.9 fold
